This data set relates to GST:p33ΔTMD (Citrus tristeza virus (isolate T36)). In words: EMSA.

Consider LMT1 full length (1-780), for which the dissociation constant Kd was found to be 122 nM.

As a reminder, the Kd is the equilibrium constant for the complex coming apart. Read a low Kd as higher affinity.

The values above are taken from publication PMC8625556.
